{
  "source": "patent US7838288B2",
  "about": "“Modulators of odorant receptors” (Duke University, priority 2004, dated 2010)",
  "molecules": {"B1": {"name": "RTP1-D1: RTP1 variant from deleting portions of RTP1-D; murine SEQ ID NO: 48 (protein, listed as Mus musculus)", "chain": "MRIFRPWRLRCPALHLPSFPTFSIKCSLPPLPTDEDMCKSVTTGEWKKVFYEKMEEVKPADSWDFIIDPNLKHNVLAPGWKQYLELHASGRFHCSWCWHTWQSPHVVILFHMYLDKAQRAGSVRMRVFKQLCYECGTARLDESSMLEENIESLVDNLITSLREQCYGERGGHYRIHVASRQDNRRHRGEFCEACQEGIVHWKPSEKLLEEEA"}, "B2": {"name": "RTP1-D: RTP1 variant generated by deleting portions of RTP1; murine SEQ ID NO: 44 (protein, listed as Mus musculus)", "chain": "MRIFRPWRLRCPALHLPSFPTFSIKCSLPPLPTDEDMCKSVTTGEWKKVFYEKMEEVKPADSWDFIIDPNLKHNVLAPGWKQYLELHASGRFHCSWCWHTWQSPHVVILFHMYLDKAQRAGSVRMRVFKQLCYECGTARLDESSMLEENIESLVDNLITSLREQCYGERGGHYRIHVASRQDNRRHRGEFCEACQEGIVHWKPSEKLLEEEATTYTFSRAPSPTKPQAETGSGC"}, "B3": {"name": "RTP1-D3: RTP1 variant from deleting portions of RTP1-D; murine SEQ ID NO: 50 (protein, listed as Mus musculus)", "chain": "MRIFRPWRLRCPALHLPSFPTFSIKCSLPPLPTDEDMCKSVTTGEWKKVFYEKMEEVKPADSWDFIIDPNLKHNVLAPGWKQYLELHASGRFHCSWCWHTWQSPHVVILFHMYLDKAQRAGSVRMRVFKQLCYECGTARLDESSMLEENIESLVDNLITSLREQCYGERGGHYRIHVASRQDNRRHRGEFCEACQEGIVHWKPSEKLLEEEATTYTFSRAPSPTKPQAETGSGCNFCSIPWCLFWATVLMLII"}, "B4": {"name": "ICAP-1: a negative control protein, Flag-tagged (protein, UniProt O14713 1-200, looked up)", "Integrin beta-1-binding …": "MFRKGKKRHSSSSSQSSEISTKSKSVDSSLGGLSRSSTVASLDTDSTKSSGQSNNNSDTCAEFRIKYVGAIEKLKLSEGKGLEGPLDLINYIDVAQQDGKLPFVPPEEEFIMGVSKYGIKVSTSDQYDVLHRHALYLIIRMVCYDDGLGAGKSLLALKTTDASNEEYSLWVYQCNSLEQAQAICKVLSTAFDSVLTSEKP", "modifications": "Flag tag", "notes": "a negative control protein, Flag-tagged"}},
  "key": {"[1]": {"test_system": "olfr62", "experiment": "Living-cell staining of cell-surface olfr62", "format": "cell-based, mouse", "procedure": "The proteins encoded by these clones were named REEP1, for Receptor Expression Enhancing Protein 1 and RTP1, for Receptor Transporting Protein 1. Subsequently, RTP2 was found, a close relative of RTP1. […] Next, REEP1, RTP1, and RTP2 were tested to detect a similar effect in promoting cell-surface expression of other ORs. Four different ORs (mouse OREG, mouse olfr62, mouse OR-S46 and rat I7) were expressed in 293T cells with or without REEP1, RTP1, or RTP2. […] Additionally, ORs transfected with REEP and/or RTP generated more immunofluorescent cells and stronger signals in positive cells compared with ORs without REEP and/or RTP (see FIG. 2A). The signal intensity and the number of immunopositive cells varied when using different ORs at each condition. […] Nonetheless, occasional immunopositive cells were observed only when the accessory proteins were co-expressed. The effects of RTP1 or RTP2 were consistently more robust than that of REEP1. The enhancement of cell-surface expression was specific for ORs and not for other GPCRs: neither REEP and/or RTP enhanced expression of the β2 adrenergic receptor, mT2R5 (a mouse bitter taste receptor) (see, e.g., Chandrashekar, J., et al. (2000) Cell 100, 703-711; herein incorporated by reference in its entirety), or a V2R pheromone receptor (VR4) (see, e.g., Matsunami, H., and Buck, L. B. (1997) Cell 90, 775-784; herein incorporated by reference in its entirety) (see FIG. 2A and FIG. 3). Finally, enhancement of cell-surface expression of MOR203-1 was not observed when other members of the REEP and RTP families (REEP2 and RTP4) were co-expressed.\n293T cells were maintained in minimal essential medium containing 10% fetal bovine serum (M10). Lipofectamine 2000 (Invitrogen) was used for transfection. In live-cell staining, 16 hours after transfection, cells were incubated in M10 containing anti rhodopsin antibody, 4D2 (see, e.g., Laird, D. W., and Molday, R. S. (1988) Invest Opthalmol V is Sci 29, 419-428; herein incorporated by reference in its entirety) and 15 mM NaN3 at 4 degrees C. for 1 hour. After washing, cells were incubated with Cy3-conjugated anti mouse IgG (Jackson Immunologicals), washed and mounted. For FACS analysis, 4D2 and PE-conjugated anti mouse IgG (Jackson Immunologicals) were used to monitor the Rho tagged receptor expression. Anti HA rabbit antibodies (Sigma) and Alexa 488 conjugated anti rabbit IgG (Molecular Probes) was used to stain the HA-β2 adrenergic receptor. To establish the Hana3a cells, 1 ug/ml of puromycin was used for selection. 96 colonies were picked and assayed using luciferase assay using OREG."}, "[2]": {"test_system": "olfr62", "experiment": "CRE-luciferase reporter gene assay, olfr62", "format": "cell-based, mouse", "conditions": "293T cells and Hana3A cells expressing RTP1 variant", "procedure": "Four ORs (S6/79, S18, S46 and S50) previously assayed using other techniques (see, e.g., Malnic, B., et al. (1999) Cell 96, 713-723; herein incorporated by reference in its entirety) were tested against an assay panel of aliphatic alcohols, aldehydes and acids and some other odorants. Additionally, five “orphan” class I ORs (MOR23-1, MOR31-4, MOR31-6, MOR32-5 and MOR32-11) whose cognate ligands were unknown were tested. At a suprathreshold concentration of 100 uM, all these ORs were odorant selective, responding to only a small subset of the odorants tested (see FIG. 11A). This specificity was retained at lower, more physiologically relevant concentrations. Many of these ORs responded to odorants present in micromolar concentrations. The cell-surface expression of these ORs by living-cell immunofluorescence were evaluated. Some ORs (S18, MOR31-4, MOR31-6 and MOR32-5) were strongly expressed while other ORs (S6, S50, MOR23-1, MOR32-11) were weakly expressed (see FIG. 12). The present invention is not limited to a particular mechanism. Indeed, an understanding of the mechanism is not necessary to practice the present invention. […] Finally, two additional orphan class II ORs, MOR203-1 and olfr62, were tested against a panel of 139 odorants. […] Olfr62 responded to coumarine and piperonal (see FIG. 11C). […] When parental 293T cells for these ORs were used in this luciferase assay, little or no response to the odorants was observed. The present invention is not limited to a particular mechanism. Indeed, an understanding of the mechanism is not necessary to practice the present invention.\nDual-Glo system (Promega) for luciferase assay was used. CRE-Luciferase (Stratagene) was used to measure the receptor activities. Renilla luciferase driven by constitutively active SV40 promoter (pRL-SV40: Promega) was used as an internal control. Cells were plated on poly-D-lysine coated 96 well plates (BIOCOAT, Beckton Dickinson). After 8 hours (for experiments shown in FIGS. 8B and 8C) or 12 hours (for experiments shown in FIG. 8D and FIG. 11) after transfection, the medium was replaced with CD293 chemically defined medium (Invitrogen) and the plates were incubated for one hour at 37 degrees C. The medium was replaced with 50 ul of odorant solutions dissolved in CD293 and incubated for 10 hours (for experiments shown in FIGS. 8B and 8C) or 4 hours (for experiments shown in FIG. 8D and FIG. 11) at 37 degrees C. The manufacture's protocol for measuring luciferase and Renilla luciferase activities was followed. Luminescence was measured using Wallac Victor 1420 (Perkin-Elmer). Normalized luciferase activity was calculated as [Luc (N)-Luc (0)]/RL (N), where Luc (N)=Luminescent count of a certain well, Luc (0)=Luminescent count without odorant for each OR, and RL (N)=Luminescent count of Renilla Luciferase of each well. For cAMP assays, cells were plated onto 24-well plate. […]. Prism software (Graphpad) was used for data analysis. […]"}, "[3]": {"test_system": "MOR203-1", "experiment": "Co-immunoprecipitation with HA-tagged MOR203-1", "format": "binding, mouse", "conditions": "Flag-tagged protein, 293T cells, HA-MOR203-1 precipitated", "procedure": "Given the ability of REEP and/or RTP to promote cell-surface expression of ORs, it was hypothesized that they may also interact with OR proteins. This was assessed using co-immunoprecipitation assays. HA-tagged MOR203-1 and Flag-tagged REEP1, RTP1 or ICAP-1, a negative control (see, e.g., Zawistowski, J. S., et al. (2002) Hum Mol Genet. 11, 389-396; herein incorporated by reference in its entirety) were transfected in 293T cells. After the cell extracts were precipitated with anti-Flag antibodies, proteins were eluted in SDS-sample buffer at room temperature whereupon western blotting analysis was performed to detect the OR proteins. OR proteins were detected as high molecular weight bands after precipitation of REEP1 or RTP1 (see FIG. 7B, lanes 1 and 2). […] The present invention is not limited to a particular mechanism. Indeed, an understanding of the mechanism is not necessary to practice the present invention.\n293T cells in 100 mm dishes were transfected with ORs, REEP1, and/or RTP1 cDNAs. 16 hours after transfection, cells were lysed in lysis buffer (50 mM Tris (7.4), 150 mM NaCl, 1% NP-40, 0.5 mM PMSF, 2 mM Benzamidene, 0.5 ug/ml Leupeptin, 1.4 ug/ml pepstatin A, 2.4 ug/ml chymostatin, 15 ug/ml aprotinin, 1 mM sodium orthovanadate). The lysis were incubated with anti-Flag M2 affinity gel (Sigma) or anti-HA affinity matrix (Roche) for 2 hours at 4 degrees C. and washed with lysis buffer. Subsequently, the bound proteins were eluted by incubation with SDS sample buffer at room temperature for 2 hours. SDS-PAGE and western blotting were performed according to Mini-Protean 3 Cell (Bio-Rad) instruction manual. ECL (Amersham) was used for detecting proteins on membranes."}, "[4]": {"conditions": "accessory protein co-transfected in 293T cells"}},
  "data": [
    {"molecule": "B1", "values": [
      {"measurement": "cell-surface expression of olfr62", "setting": "[1]; [4]", "result": "Increased cell-surface staining"}
    ]},
    {"molecule": "B2", "values": [
      {"measurement": "cell-surface expression of olfr62", "setting": "[1]; RTP1 variant cDNA transfected into Hana3A cells or 293T cells", "result": "Increased cell-surface staining"},
      {"measurement": "OLFR62 activity as indicated by luciferase expression", "setting": "[2]", "result": "Increased enhancement"}
    ]},
    {"molecule": "B3", "values": [
      {"measurement": "cell-surface expression of olfr62", "setting": "[1]; [4]", "result": "Increased cell-surface staining"}
    ]},
    {"molecule": "B4", "values": [
      {"measurement": "co-precipitation with HA-MOR203-1", "setting": "[3]", "result": "not detectable"}
    ]}
  ]
}
